The source of these data is publication PMC8260448.

The target of this data set is thrombin (UniProt P00734;P00734 315-363;364-622). Nature of the data set: fluorescence polarization. Background: In fluorescence polarisation assays a small probe gives low polarisation when free and higher when bound to something large.

By Kd is commonly meant the concentration at which binding is half-saturated. In turn, GGTTGGTGTGGTTGG (structured_DNA, T3 replaced by 5-ethynyl-dU clicked to inactivated N-acyl sulfonamide 2b) [TBA(3)-2b] came in with a Kd of 395 nM. That is a sub-micromolar value.
